Patent publication US20220193186A1, “METHOD OF TREATING AND PREVENTING BONE AND JOINT INFECTIONS” (CONTRAFECT CORPORATION, priority 2019, published 2022)
Changes are numbered by the printed parent chain. In names and notes the source's numbering stands. In brackets after ≈: the same amount, converted by molar mass.

What was measured:
[1] = test system: methicillin-resistant Staphylococcus aureus IDRL-6169; assay: Rat osteomyelitis model, quantitative culture of tibia (Example 6); format: in vivo, Sprague Dawley rats; conditions: for Mean log10 CFU/g / Median log10 CFU/g: rat tibia bone; for Mean log10 CFU/g reduction: vs no treatment
Experimental: Agents Chemother. 2019 Sep. 23; 63(10). Specifically, osteomyelitis was established in the rats by bending the knee joint, inserting a 21G needle into the tibial process, and injecting 10 μl […] and 50 μl of about 10^6-10^8 colony forming units (cfu) suspension of methicillin-resistant Staphylococcus aureus IDRL-6169.
(§1) The following six treatment groups were identified: (1) control/no treatment (n=18); (2) 60 mg/kg daptomycin (DAP) administered subcutaneously twice daily for 4 days (n=17); (3) 40 mg/kg pp296 administered intravenously daily for 4 days (n=17); (4) 40 mg/kg pp296 administered intravenously daily for 4 days plus 60 mg/kg DAP administered subcutaneously twice daily for 4 days (n=17); (5) 100 mg/kg pp296 administered intravenously once as a single dose on treatment day 1 (n=17); and (6) 100 mg/kg pp296 administered intravenously once as a single dose on treatment day 1 plus 60 mg/kg DAP administered subcutaneously twice daily for 4 days (n=17). When daptomycin was administered together with pp296, it was given 15 minutes prior to pp296, which was maintained on ice.
Animals were sacrificed twelve hours after the last treatment was administered, and the tibia were collected, weighed, and cryopulverized for quantitative bacterial culture. The log10 CFU counts/g of tibia bone was determined using the Wilcoxon rank sum test, adjusted with a false discovery rate approach.

[2] = test system: MRSA IDRL-6169 biofilm; assay: Minimum biofilm inhibitory and bactericidal concentrations; format: cell-based, Staphylococcus aureus; conditions: CF-301 testing with 0.5 mM DL-dithiothreitol and 25% horse serum
[3] = Body weight of rats in osteomyelitis model (Example 6); format: in vivo, Sprague Dawley rats; conditions: mean; for Body weight on Day 1: time of surgery (before treatment); for Body weight on Day 8: immediately prior to treatment; for Body weight on Day 12: time of sacrifice, without or with DAP 60 mg/kg
Experimental: as §1
Additionally, body weights of the animals were monitored as a marker of general health status during the study. The mean body weight of the animals at the time of surgery (day 1), immediately prior to treatment (day 8), and at the time of sacrifice (day 12) are shown below in Table 5.

[4] = test system: MRSA IDRL-6169; assay: MIC by broth microdilution; format: cell-based, Staphylococcus aureus; conditions: MRSA IDRL-6169, broth microdilution, CF-301 testing with 0.5 mM DL-dithiothreitol and 25% horse serum
[5] = test system: MRSA IDRL-6169; assay: Acute MRSA osteomyelitis in rats, quantitative culture of tibia (Example 4); format: in vivo, Sprague Dawley rats; conditions: rat tibia, daptomycin 60 mg/kg i.p. every 12 hours for four days, CF-301 single dose 40 mg/kg tail vein; for mean (±SD) bacterial density: Day 12 (4 days after start of therapy); for reduction compared to untreated rats: Day 12
[6] = test system: S. epidermidis isolate NRS6 biofilms; assay: Disruption of biofilms formed in human synovial fluid (fluorescent imaging); format: cell-based
Experimental: Macroscopic analysis of CF-301 activity on biofilms, which were formed in human synovial fluid, was performed in the manner described in Dastgheyb et al. (2015) JID 211:641-50 and Dastgheyb et al. (2015) AAC 59:e04579-14. Briefly, 10^8 CFUs of S. epidermidis isolate NRS6 were incubated for 24 hours at 37° C. in 24-well plates containing HSF. After biofilm formation, the wells were stained with ethidium bromide (EtBr) and treated with 0.1 or 1 μg/mL CF-301 for 2 hours. The biofilms were visualized by UV fluorescent imaging. Untreated controls were also examined.
The biofilms were also stained with Alexa Flour^488-WGA, which stained the exopolysaccharide in the biofilms (and individual bacteria) and propidium iodide (PI) which stained the entire biofilm. The biofilms were then visualized by fluorescence microscopy. As evidenced in FIG. 3, the S. epidermidis biofilms formed in HSF were eliminated after two hours of treatment with 0.1 ug/mL or 1 ug/mL CF-301.

[7] = after a single dose of 10 mg/kg
[8] = test system: S. aureus (MRSA strains MW2, ATCC BAA-42); assay: MIC by broth microdilution (CLSI) in caMHB-HSF and caMHB-HSD; format: cell-based
[9] = test system: multiple drug resistant (MDR) Staphylococcus epidermidis prosthetic knee infection; assay: CF-301 during arthroscopic DAIR in patients with prosthetic knee infection
[10] = test system: S. epidermidis clinical isolates; assay: MIC by broth microdilution (CLSI) in caMHB-HSF and caMHB-HSD; format: cell-based; conditions: S. epidermidis (N = 53)
Description: More particularly MIC values for a lysin may be determined against e.g., S. epidermidis or S. aureus in e.g., Mueller-Hinton broth (MHB) supplemented with physiological salt concentrations and synovial fluid, such as human synovial fluid. Minimum Inhibitory Concentrations (MICs) of a lysin against e.g., S. epidermidis may be determined using broth microdilution (BMD) following Clinical and Laboratory Standards Institute (CLSI) methodology (M07-A11, 2018, which is herein incorporated by reference in its entirety) in a non-standard medium (caMHB supplemented to 50% with human synovial fluid (caMHB-HSF)). See Examples.
Minimum Inhibitory Concentrations (MICs) of the CF-301 lysin (SEQ ID NO: 1) against S. epidermidis were determined using broth microdilution (BMD) following CLSI methodology (M07-A11, 2018) in a non-standard medium (caMHB supplemented to 25% with horse serum and 0.5 mM with DTT (caMHB-HSD)) approved for use by the CLSI in antimicrobial susceptibility testing with CF-301 (CLSI, AST Subcommittee Meeting, January, 2018). Activity of CF-301 against S. epidermidis in HSF (Discovery Life Sciences) was similarly determined using BMD in caMHB with 50% HSF (caMHB-HSF). The caMHB-HSF supports the growth and biofilm formation of S. epidermidis as well as S. aureus.

[11] = Pathological slides, rat osteomyelitis model (Example 6); format: in vivo, Sprague Dawley rats; conditions: rats, pp296 line: 40 mg/kg daily dosing (Treatment Group 3)
Description: These findings are consistent with acute osteomyelitis, and no appreciable differentiation between groups could be made.

[12] = DAP 60 mg/kg s.c. twice daily for 4 days
[13] = CF-301 into the joint during arthroscopic DAIR, daptomycin, linezolid then suppressive tedizolid
[14] = caMHB-HSD (25% horse serum, 0.5 mM DTT)
[15] = caMHB-HSF (50% human synovial fluid)
[16] = pp296 40 mg/kg i.v. daily for 4 days (combination: plus DAP 60 mg/kg s.c. twice daily for 4 days)
[17] = pp296 100 mg/kg i.v. single dose on treatment day 1 (combination: plus DAP 60 mg/kg s.c. twice daily for 4 days)
[18] = groups pp296 40 mg/kg, without or with DAP
[19] = groups pp296 100 mg/kg, without or with DAP

With `CCCCCCCCCC(=O)N[C@@H](Cc1c[nH]c2ccccc12)C(=O)N[C@H](CC(N)=O)C(=O)N[C@@H](CC(=O)O)C(=O)N[C@@H]1C(=O)NCC(=O)N[C@@H](CCCN)C(=O)N[C@@H](CC(=O)O)C(=O)N[C@H](C)C(=O)N[C@@H](CC(=O)O)C(=O)NCC(=O)N[C@H](CO)C(=O)N[C@@H]([C@H](C)CC(=O)O)C(=O)N[C@@H](CC(=O)c2ccccc2N)C(=O)O[C@@H]1C` [daptomycin, reference compound] the “Mean log10 CFU/g” value [1, 12] was 4.29 log10 CFU/g, the “Median log10 CFU/g” value [1, 12] was 4.79 log10 CFU/g and the “Mean log10 CFU/g reduction” value [1, 12] was −1.14 log10 CFU/g. For the same molecule, the “Minimum biofilm inhibitory concentration” value [2] was 1 µg/mL, the “minimum biofilm bactericidal concentration” value [2] was 2 µg/mL and the Body weight on Day 1 ([3]; group DAP 60 mg/kg) was 339 g. For the same molecule, the MIC ([4]; Staphylococcus aureus, read-out: minimum inhibitory concentration) was 0.5 µg/mL (≈ 0.309 µM), the “mean (±SD) bacterial density” value [5] was 4.09 (±0.37) log10 cfu/gram of bone and the “reduction compared to untreated rats” value [5] was 1.04 log10 cfu/gram of bone.

B1: CF-301: PlySs2 lysin of SEQ ID NO: 1, anti-staphylococcal lysin encoded within a prophage of the Streptococcus suis genome (protein, listed as Streptococcus suis)
chain: MTTVNEALNNVRAQVGSGVSVGNGECYALASWYERMISPDATVGLGAGVGWVSGAIGDTISAKNIGSSYNWQANGWTVSTSGPFKAGQIVTLGATPGNPYGHVVIVEAVDGDRLTILEQNYGGKRYPVRNYYSAASYRQQVVHYITPPGTVAQSAPNLAGSRSYRETGTMTVTVDALNVRRAPNTSGEIVAVYKRGESFDYDTVIIDVNGYVWVSYIGGSGKRNYVATGATKDGKRFGNAWGTFK
In the case of B1, the “ethidium bromide staining of biofilm structures formed by NRS6 in human synovial fluid” value ([6]; 0.1 or 1 μg/mL CF-301 for 2 hours, UV fluorescent imaging, FIG. 2) is reported as “eliminated”, the “S. epidermidis biofilms formed in HSF, Alexa Fluor 488-WGA / propidium iodide fluorescence microscopy” value ([6]; two hours of treatment with 0.1 ug/mL or 1 ug/mL CF-301, FIG. 3) is reported as “eliminated” and the “Levels of CF-301 in bone relative to plasma levels” value [7] is reported as 10-15%. The “CF-301 MIC” value ([8]; S. aureus strain ATCC BAA-42, caMHB-HSD) was 0.5 µg/mL, the “CF-301 MIC” value ([8]; S. aureus strain ATCC BAA-42, caMHB-HSF) was 0.03 µg/mL and the “CF-301 MIC” value ([8]; S. aureus strain MW2, caMHB-HSD) was 0.5 µg/mL. For the same molecule, the “CF-301 MIC” value ([8]; S. aureus strain MW2, caMHB-HSF) was 0.03 µg/mL, the “outcome after 1 year follow up in the two septic arthritis patients” value [9, 13] was “favorable” and the “outcome at 6 months in the two patients with fistula at baseline” value [9, 13] was “recurrence of the fistula”. The “adverse events during arthroscopy” value ([9]; four patients, CF-301 (75 mg/mL; 30 mL) into the joint during arthroscopy, followed by antibiotics) was “No adverse events”, the “Minimum biofilm inhibitory concentration” value [2] was 1 µg/mL and the “minimum biofilm bactericidal concentration” value [2] was 4 µg/mL. For the same molecule, the minimum inhibitory concentration [4] was 0.5 µg/mL, the “CF-301 MIC, MIC50” value [10, 14] was 0.5 µg/mL and the “CF-301 MIC, MIC90” value [10, 14] was 0.5 µg/mL. For the same molecule, the “CF-301 MIC, Range” value [10, 14] was 0.25 to 2 µg/mL, the “CF-301 MIC, MIC50” value [10, 15] was 0.015 µg/mL and the “CF-301 MIC, MIC90” value [10, 15] was 0.125 µg/mL. For the same molecule, the “CF-301 MIC, Range” value [10, 15] was 0.0078 to 2 µg/mL, the “mean (±SD) bacterial density” value [5] was 4.65 (±0.65) log10 cfu/gram of bone and the “reduction compared to untreated rats” value [5] was 0.65 log10 cfu/gram of bone.

B2: pp296: modified PlySs2 lysin, SEQ ID NO: 6; L92W, V104S, V128T and Y137S, Y164K, N184D, S198Q (protein)
chain: B1 chain with L92W, V104S, V128T, Y137S, Y164K, N184D, S198Q
In the case of B2, the “Mean log10 CFU/g” value [1, 16] is reported as 4.94 log10 CFU/g, the “Median log10 CFU/g” value [1, 16] is reported as 5.27 log10 CFU/g and the “Mean log10 CFU/g” value [1, 17] is reported as 4.81 log10 CFU/g. The “Median log10 CFU/g” value [1, 17] was 4.99 log10 CFU/g, the “Mean log10 CFU/g reduction” value [1, 16] was −0.49 log10 CFU/g and the “Mean log10 CFU/g reduction” value [1, 17] was −0.61 log10 CFU/g. For the same molecule, the Body weight on Day 8 [3, 18] was 313 g, the Body weight on Day 8 [3, 19] was 312 g and the Body weight on Day 12 ([3]; pp296 40 mg/kg i.v. daily for 4 days) was 311 g. It also gave a Body weight on Day 12 ([3]; pp296 100 mg/kg i.v. single dose) of 312 g, a Body weight on Day 1 [3, 18] of 342 g and a Body weight on Day 1 [3, 19] of 344 g. The “Pathological slides (marrow cellularity)” value [11] was “only possible hypercellularity”.
